This is an account of results in patent US20140234211A1 (INVECTORS S R L, published 2014).

In this assay the target is T1, GRP receptor overexpressed on PC-3 cells (UniProt P30550 1-384).
T1 construct: whole, on cells; also called GRP receptors
Briefly: 111In-labelled liposomes on PC-3 cells overexpressing the GRP receptor; cell-bound radioactivity by gamma counting. How it is done: On the day of the experiment, the cell medium is removed, the cells are washed two times with fresh medium (DMEM with 1% of foetal bovine serum, pH 7.4) and incubated for at least one hour at 37° C. The cells were incubated (in triplicate) with 100 μL of liposomes labelled with indium 111/natural indium at various times (30 mins, 1 hour, 2 hours, 4 hours). The final volume is 1 mL and the final liposomal concentration is 2*10⁻⁴M. At the end of the incubation, the cell medium, containing the unbound radioactivity, is separated from the cells.
The radioactivity bound to the cells was recovered by tryptic digestion after two rapid washes with […] PBS followed by 1 hour of incubation and measured by gamma counting. The difference in binding of the liposomes containing H-L₁-Y(C)-L₂-P with the bombesin peptide, compared to when the peptide is absent, is clearly visible in FIG. 2. Experiments were conducted with various type (1) monomers in the liposomal formulation, varying the peptide sequences and the chelating agent, such as those described in examples 1a-1o. No substantial differences are found in the target selective binding properties. For example, in FIG. 2 the result for the liposomes containing monomer 1a is reported.

Y(DOTA) = not defined here; Y(DTPA) = not defined here; AhOh = not defined here; Peg27 = L1, H-Peg27-OH

T1 sequence (P30550 whole entry): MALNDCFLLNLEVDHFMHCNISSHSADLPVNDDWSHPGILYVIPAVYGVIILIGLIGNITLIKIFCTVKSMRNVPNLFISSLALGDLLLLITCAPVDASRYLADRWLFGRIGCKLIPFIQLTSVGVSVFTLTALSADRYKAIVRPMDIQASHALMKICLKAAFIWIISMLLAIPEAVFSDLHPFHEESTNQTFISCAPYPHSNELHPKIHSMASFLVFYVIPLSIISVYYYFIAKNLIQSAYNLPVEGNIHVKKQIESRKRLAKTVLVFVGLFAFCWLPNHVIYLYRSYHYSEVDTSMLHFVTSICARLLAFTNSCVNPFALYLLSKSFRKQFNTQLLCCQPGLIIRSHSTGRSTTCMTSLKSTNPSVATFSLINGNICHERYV

B1: monomer of formula (I) of example 1.g, H-L1-Y(C)-L2-P: P = Gln-Trp-Ala-Val-Gly-His-Leu-Nle-NH2, C = DOTA, L1 = H-Peg27-OH, L2 = H-AhOh-OH, in liposomes (peptide)
peptide: QWAVGHLX
modifications: not fully specified; Nle at position 8; C-terminal amide (NH2); N-terminal amino group amide-linked to spacer L2 (H-AhOh-OH)
notes: Chelating agent DOTA; Tested in 111In-labelled liposomes
As to B1, the binding result is “binds”.

B2: monomer of formula (I) of example 1.e, H-L1-Y(C)-L2-P: P = Gln-Trp-Ala-Val-Gly-His-Leu-Met-NH2, C = DTPA, L1 = H-Peg27-OH, L2 = H-AhOh-OH, in liposomes (peptide)
peptide: {Peg27-Y(DTPA)-AhOh}-QWAVGHLM-NH2
modifications: reading uncertain; also: in liposomes
notes: Tested in 111In-labelled liposomes
Take B2: the binding result is “binds”.

B3: monomer of formula (I) of example 1.a, H-L1-Y(C)-L2-P: P = Gln-Trp-Ala-Val-Gly-His-Leu-Nle-NH2, C = DTPA, L1 = H-Peg27-OH, L2 = H-AhOh-OH, in liposomes (peptide)
peptide: QWAVGHLX
modifications: not fully specified; Nle at position 8; C-terminal amide (NH2); N-terminal amino group amide-linked to spacer L2 (H-AhOh-OH) of the lipid/DTPA monomer
notes: also called monomer 1a
As for B3, the binding result is “binds”.

B4: monomer of formula (I) of example 1.k, H-L1-Y(C)-L2-P: P = Gln-Trp-Ala-Val-Gly-His-Leu-Met-NH2, C = DOTA, L1 = H-Peg27-OH, L2 = H-AhOh-OH, in liposomes (peptide)
peptide: {Peg27-Y(DOTA)-AhOh}-QWAVGHLM-NH2
modifications: reading uncertain; also: in liposomes
notes: as for B1
Consider B4, for which the binding result is “binds”.
